Experimental data: patent US20190153089A1

Molecular target: the two scFvs (17-21-A01-sc01 and 17-21-A01-sc03)
Assay: competition ELISA: IC50 of TNFβ relative to IC50 of TNFα on coated scFv

B1: recombinant human TNFβ (Peprotech, Cat. No. 300-01B) (ligand, UniProt P01374 35-205, looked up)
chain: LPGVGLTPSAAQTARQHPKMHLAHSTLKPAAHLIGDPSKQNSLLWRANTDRAFLQDGFSLSNNSLLVPTSGIYFVYSQVVFSGKAYSPKATSSPLYLAHEVQLFSSQYPFHVPLLSSQKMVYPGLQEPWLHSMYHGAAFQLTQGDQLSTHTDGIPHLVLSPSTVFFGAFAL
  selectivity for binding to TNFα over TNFβ: > 20000 fold
